# Tested on: Fes; GST-cortactin (residues 382–550)
# Assay: In vivo kinase assay: Fes autophosphorylation and GST-cortactin phosphorylation in transfected HEK293T cells
# Type: cell-based, human
# Details: full-length Flag-Fes, HEK293T, 24 hr, western blot anti-pTyr; in words
# Source text: To pursue the relevance of the observed interdomain interactions, we studied the effects of mutating residues in the SH2-kinase interface on human Fes activity. To this end, we monitored Fes autophosphorylation and transphosphorylation activity in transfected cells, using cortactin (residues 382–550) fused to GST as an exogenous substrate (Figures 2A and 2B). In an effort to perturb the close interaction between the SH2 and kinase domains, we mutated the conserved glycine residue (G463) located in the tightly packed interface between the SH2 N terminus and the kinase β4/β5 loop to valine (mutant G/V). Introducing this bulky side chain would be expected to sterically hinder alignment of the SH2 and kinase domains, resulting in an altered domain packing. Wild-type (WT) and G/V mutant full-length human Fes, each with an N-terminal Flag epitope, were expressed in HEK293T cells together with GST-cortactin.
# Wild-type p130^Gag-Fps and the RX15m and AX9m mutants ([Stone et al., 1984]) were subcloned into the vector pRK5-myc ([Winberg et al., 2000]). Full-length human Fes was cloned into the vector pCMV7.1-3xFlag (Sigma, St. Louis, MO). Site-directed mutagenesis was performed using the QuickChange® II XL Kit (Stratagene, La Jolla, CA) following the manufacturer's directions. A GST-tagged C-terminal fragment of human cortactin (residues 382–550, accession Q14247) was prepared by PCR from cDNA (accession BC008799) and cloned into pEBG vector (gift from C. Duckett, University of Michigan Medical School, Ann Arbor).
# HEK293T cells were maintained in Dulbecco's modified Eagle's medium supplemented with 10% (vol/vol) fetal bovine serum, 100 units/ml penicillin G sodium, and 100 μg/ml streptomycin and incubated at 37°C, 5% CO2.
# Flag-tagged Fes or Myc-tagged p130^Gag-Fps and mutants thereof were cotransfected with GST-cortactin into HEK293T cells. After 24 hr, cells were lysed with NP-40 cell lysis buffer (50 mM Tris-HCl [pH 7.5], 150 mM NaCl, 1% NP-40, and 1 mM EDTA) that contained 1 mM phenylmethylsulfonyl fluoride, 10 μg/ml leupeptin, 10 μg/ml aprotinin, and 10 μg/ml pepstatin A. Cell lysates, normalized for protein concentration, were used in anti-Flag M2 antibody-agarose (Sigma) or anti-Myc antibody immunoprecipitations or glutathione sepharose affinity precipitations. Associated proteins were resolved using SDS-PAGE and analyzed by western blotting using anti-Flag M2 (Sigma), anti-c-Myc 9E10 (Santa Cruz), HRP-conjugated anti-GST (Santa Cruz), or anti-pTyr 4G10 (Upstate) antibodies.
row,Molecule,Fes kinase activity (autophosphorylation and cortactin phosphorylation)
1,"WT: Wild-type full-length human Fes with N-terminal Flag epitope (protein, UniProt P07332 1-822, looked up, full-length N-terminal Flag tag) MGFSSELCSPQGHGVLQQMQEAELRLLEGMRKWMAQRVKSDREYAGLLHHMSLQDSGGQSRAISPDSPISQSWAEITSQTEGLSRLLRQHAEDLNSGPLSKLSLLIRERQQLRKTYSEQWQQLQQELTKTHSQDIEKLKSQYRALARDSAQAKRKYQEASKDKDRDKAKDKYVRSLWKLFAHHNRYVLGVRAAQLHHQHHHQLLLPGLLRSLQDLHEEMACILKEILQEYLEISSLVQDEVVAIHREMAAAAARIQPEAEYQGFLRQYGSAPDVPPCVTFDESLLEEGEPLEPGELQLNELTVESVQHTLTSVTDELAVATEMVFRRQEMVTQLQQELRNEEENTHPRERVQLLGKRQVLQEALQGLQVALCSQAKLQAQQELLQTKLEHLGPGEPPPVLLLQDDRHSTSSSEQEREGGRTPTLEILKSHISGIFRPKFSLPPPLQLIPEVQKPLHEQLWYHGAIPRAEVAELLVHSGDFLVRESQGKQEYVLSVLWDGLPRHFIIQSLDNLYRLEGEGFPSIPLLIDHLLSTQQPLTKKSGVVLHRAVPKDKWVLNHEDLVLGEQIGRGNFGEVFSGRLRADNTLVAVKSCRETLPPDLKAKFLQEARILKQYSHPNIVRLIGVCTQKQPIYIVMELVQGGDFLTFLRTEGARLRVKTLLQMVGDAAAGMEYLESKCCIHRDLAARNCLVTEKNVLKISDFGMSREEADGVYAASGGLRQVPVKWTAPEALNYGRYSSESDVWSFGILLWETFSLGASPYPNLSNQQTREFVEKGGRLPCPELCPDAVFRLMEQCWAYEPGQRPSFSTIYQELQSIRKRHR",active
2,"E472K: Fes E472K mutant (protein, UniProt P07332 1-822, looked up, variant E472K) Tyrosine-protein kinase …: MGFSSELCSPQGHGVLQQMQEAELRLLEGMRKWMAQRVKSDREYAGLLHHMSLQDSGGQSRAISPDSPISQSWAEITSQTEGLSRLLRQHAEDLNSGPLSKLSLLIRERQQLRKTYSEQWQQLQQELTKTHSQDIEKLKSQYRALARDSAQAKRKYQEASKDKDRDKAKDKYVRSLWKLFAHHNRYVLGVRAAQLHHQHHHQLLLPGLLRSLQDLHEEMACILKEILQEYLEISSLVQDEVVAIHREMAAAAARIQPEAEYQGFLRQYGSAPDVPPCVTFDESLLEEGEPLEPGELQLNELTVESVQHTLTSVTDELAVATEMVFRRQEMVTQLQQELRNEEENTHPRERVQLLGKRQVLQEALQGLQVALCSQAKLQAQQELLQTKLEHLGPGEPPPVLLLQDDRHSTSSSEQEREGGRTPTLEILKSHISGIFRPKFSLPPPLQLIPEVQKPLHEQLWYHGAIPRAEVAKLLVHSGDFLVRESQGKQEYVLSVLWDGLPRHFIIQSLDNLYRLEGEGFPSIPLLIDHLLSTQQPLTKKSGVVLHRAVPKDKWVLNHEDLVLGEQIGRGNFGEVFSGRLRADNTLVAVKSCRETLPPDLKAKFLQEARILKQYSHPNIVRLIGVCTQKQPIYIVMELVQGGDFLTFLRTEGARLRVKTLLQMVGDAAAGMEYLESKCCIHRDLAARNCLVTEKNVLKISDFGMSREEADGVYAASGGLRQVPVKWTAPEALNYGRYSSESDVWSFGILLWETFSLGASPYPNLSNQQTREFVEKGGRLPCPELCPDAVFRLMEQCWAYEPGQRPSFSTIYQELQSIRKRHR",not significantly impaired
3,"E469K: Fes E469K mutant (protein, UniProt P07332 1-822, looked up, variant E469K) Tyrosine-protein kinase …: MGFSSELCSPQGHGVLQQMQEAELRLLEGMRKWMAQRVKSDREYAGLLHHMSLQDSGGQSRAISPDSPISQSWAEITSQTEGLSRLLRQHAEDLNSGPLSKLSLLIRERQQLRKTYSEQWQQLQQELTKTHSQDIEKLKSQYRALARDSAQAKRKYQEASKDKDRDKAKDKYVRSLWKLFAHHNRYVLGVRAAQLHHQHHHQLLLPGLLRSLQDLHEEMACILKEILQEYLEISSLVQDEVVAIHREMAAAAARIQPEAEYQGFLRQYGSAPDVPPCVTFDESLLEEGEPLEPGELQLNELTVESVQHTLTSVTDELAVATEMVFRRQEMVTQLQQELRNEEENTHPRERVQLLGKRQVLQEALQGLQVALCSQAKLQAQQELLQTKLEHLGPGEPPPVLLLQDDRHSTSSSEQEREGGRTPTLEILKSHISGIFRPKFSLPPPLQLIPEVQKPLHEQLWYHGAIPRAKVAELLVHSGDFLVRESQGKQEYVLSVLWDGLPRHFIIQSLDNLYRLEGEGFPSIPLLIDHLLSTQQPLTKKSGVVLHRAVPKDKWVLNHEDLVLGEQIGRGNFGEVFSGRLRADNTLVAVKSCRETLPPDLKAKFLQEARILKQYSHPNIVRLIGVCTQKQPIYIVMELVQGGDFLTFLRTEGARLRVKTLLQMVGDAAAGMEYLESKCCIHRDLAARNCLVTEKNVLKISDFGMSREEADGVYAASGGLRQVPVKWTAPEALNYGRYSSESDVWSFGILLWETFSLGASPYPNLSNQQTREFVEKGGRLPCPELCPDAVFRLMEQCWAYEPGQRPSFSTIYQELQSIRKRHR",reduced tyrosine kinase activity
4,"G/V: Fes mutant, conserved glycine residue (G463) mutated to valine (protein, UniProt P07332 1-822, looked up, variant G463V) Tyrosine-protein kinase …: MGFSSELCSPQGHGVLQQMQEAELRLLEGMRKWMAQRVKSDREYAGLLHHMSLQDSGGQSRAISPDSPISQSWAEITSQTEGLSRLLRQHAEDLNSGPLSKLSLLIRERQQLRKTYSEQWQQLQQELTKTHSQDIEKLKSQYRALARDSAQAKRKYQEASKDKDRDKAKDKYVRSLWKLFAHHNRYVLGVRAAQLHHQHHHQLLLPGLLRSLQDLHEEMACILKEILQEYLEISSLVQDEVVAIHREMAAAAARIQPEAEYQGFLRQYGSAPDVPPCVTFDESLLEEGEPLEPGELQLNELTVESVQHTLTSVTDELAVATEMVFRRQEMVTQLQQELRNEEENTHPRERVQLLGKRQVLQEALQGLQVALCSQAKLQAQQELLQTKLEHLGPGEPPPVLLLQDDRHSTSSSEQEREGGRTPTLEILKSHISGIFRPKFSLPPPLQLIPEVQKPLHEQLWYHVAIPRAEVAELLVHSGDFLVRESQGKQEYVLSVLWDGLPRHFIIQSLDNLYRLEGEGFPSIPLLIDHLLSTQQPLTKKSGVVLHRAVPKDKWVLNHEDLVLGEQIGRGNFGEVFSGRLRADNTLVAVKSCRETLPPDLKAKFLQEARILKQYSHPNIVRLIGVCTQKQPIYIVMELVQGGDFLTFLRTEGARLRVKTLLQMVGDAAAGMEYLESKCCIHRDLAARNCLVTEKNVLKISDFGMSREEADGVYAASGGLRQVPVKWTAPEALNYGRYSSESDVWSFGILLWETFSLGASPYPNLSNQQTREFVEKGGRLPCPELCPDAVFRLMEQCWAYEPGQRPSFSTIYQELQSIRKRHR",completely inactive
5,"EER/KKE: Fes triple mutant: EE/KK plus R609 in αC helix to glutamate (protein, UniProt P07332 1-822, looked up, variant E469K E472K R609E) Tyrosine-protein kinase …: MGFSSELCSPQGHGVLQQMQEAELRLLEGMRKWMAQRVKSDREYAGLLHHMSLQDSGGQSRAISPDSPISQSWAEITSQTEGLSRLLRQHAEDLNSGPLSKLSLLIRERQQLRKTYSEQWQQLQQELTKTHSQDIEKLKSQYRALARDSAQAKRKYQEASKDKDRDKAKDKYVRSLWKLFAHHNRYVLGVRAAQLHHQHHHQLLLPGLLRSLQDLHEEMACILKEILQEYLEISSLVQDEVVAIHREMAAAAARIQPEAEYQGFLRQYGSAPDVPPCVTFDESLLEEGEPLEPGELQLNELTVESVQHTLTSVTDELAVATEMVFRRQEMVTQLQQELRNEEENTHPRERVQLLGKRQVLQEALQGLQVALCSQAKLQAQQELLQTKLEHLGPGEPPPVLLLQDDRHSTSSSEQEREGGRTPTLEILKSHISGIFRPKFSLPPPLQLIPEVQKPLHEQLWYHGAIPRAKVAKLLVHSGDFLVRESQGKQEYVLSVLWDGLPRHFIIQSLDNLYRLEGEGFPSIPLLIDHLLSTQQPLTKKSGVVLHRAVPKDKWVLNHEDLVLGEQIGRGNFGEVFSGRLRADNTLVAVKSCRETLPPDLKAKFLQEAEILKQYSHPNIVRLIGVCTQKQPIYIVMELVQGGDFLTFLRTEGARLRVKTLLQMVGDAAAGMEYLESKCCIHRDLAARNCLVTEKNVLKISDFGMSREEADGVYAASGGLRQVPVKWTAPEALNYGRYSSESDVWSFGILLWETFSLGASPYPNLSNQQTREFVEKGGRLPCPELCPDAVFRLMEQCWAYEPGQRPSFSTIYQELQSIRKRHR",regained kinase activity to a level approaching wild-type
6,"EE/KK: Fes double mutant, E469 and E472 to lysine (protein) WYHGAIPRAKVAKLLVHSGDFLVRESQGKQEYVLSVLWDGLPRHFIIQSLDNLYRLEGEGFPSIPLLIDHLLSTQQPLTKKSGVVLHRAV",strongly reduced Fes kinase activity

# Reference: PMC2572732, “Structural Coupling of SH2-Kinase Domains Links Fes and Abl Substrate Recognition and Kinase Activation” (Cell, 2008)
